Results taken from patent US20160031996A1 (CSL, published 2016).
Residue numbers refer to the chain shown, from its start.

Key:
[1] = biological target: T1, chimera of human IL-3Rα residues 101-377 with GM-CSFRα domains (human, UniProt P15509 23-114); test: flow cytometry, transfected 293F cells
T1 construct: on 293F cells
T1 sequence: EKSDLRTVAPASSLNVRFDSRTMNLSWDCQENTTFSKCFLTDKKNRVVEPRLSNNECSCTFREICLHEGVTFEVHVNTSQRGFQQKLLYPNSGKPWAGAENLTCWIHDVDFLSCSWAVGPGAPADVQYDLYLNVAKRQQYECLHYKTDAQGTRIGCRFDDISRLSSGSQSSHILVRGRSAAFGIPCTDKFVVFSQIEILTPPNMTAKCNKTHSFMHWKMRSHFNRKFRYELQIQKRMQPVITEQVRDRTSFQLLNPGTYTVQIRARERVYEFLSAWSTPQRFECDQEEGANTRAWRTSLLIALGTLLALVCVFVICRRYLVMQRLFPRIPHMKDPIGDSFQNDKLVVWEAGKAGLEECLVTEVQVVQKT
Description: Expression constructs were generated of frill length human IL-3Rα or of proteins comprising hIL-3Rα domains with various GM-CSFRα domains as depicted in FIG. 1A. […] Results are tabulated in Table 1 with positive staining (+) and negative staining (−) indicated.

[2] = biological target: T2, wild-type human GM-CSFRα (human, UniProt P15509 23-400); test: Western blot, whole cell extracts
T2 construct: whole, on cells; negative control, on 293F cells; also called GM-CSFRa
T2 sequence (looked up): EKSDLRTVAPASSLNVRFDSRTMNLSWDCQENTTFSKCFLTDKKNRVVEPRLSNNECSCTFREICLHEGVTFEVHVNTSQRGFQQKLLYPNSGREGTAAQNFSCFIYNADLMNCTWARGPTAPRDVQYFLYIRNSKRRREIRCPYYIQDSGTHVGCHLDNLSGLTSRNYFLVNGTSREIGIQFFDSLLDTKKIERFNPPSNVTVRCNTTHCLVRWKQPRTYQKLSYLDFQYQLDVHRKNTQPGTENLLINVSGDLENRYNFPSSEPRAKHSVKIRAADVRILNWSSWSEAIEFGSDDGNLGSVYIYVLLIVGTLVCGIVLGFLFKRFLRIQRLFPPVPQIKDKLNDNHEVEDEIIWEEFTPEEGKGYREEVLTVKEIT

[3] = biological target: T3, human IL-3Rα E51Q/P88T double mutant, full length (human, UniProt P26951 19-378); test: Western blot after SDS-PAGE of whole cell extracts
T3 chain: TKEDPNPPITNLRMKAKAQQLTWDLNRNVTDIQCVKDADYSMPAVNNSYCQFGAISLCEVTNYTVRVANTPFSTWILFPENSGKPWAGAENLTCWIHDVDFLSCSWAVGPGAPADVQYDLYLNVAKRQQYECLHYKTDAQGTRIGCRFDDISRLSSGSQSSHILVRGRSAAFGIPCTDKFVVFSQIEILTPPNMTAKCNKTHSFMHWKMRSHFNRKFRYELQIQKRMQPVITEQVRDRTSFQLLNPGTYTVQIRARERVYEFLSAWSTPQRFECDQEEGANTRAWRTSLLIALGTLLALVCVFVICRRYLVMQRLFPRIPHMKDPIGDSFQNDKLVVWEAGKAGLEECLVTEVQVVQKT

[4] = biological target: T4, human IL-3Rα E51Q/S59A/P88T triple mutant, full length (human, UniProt P26951 19-378); test: Western blot after SDS-PAGE of whole cell extracts
T4 chain: T3 chain with S41A

[5] = biological target: T5, human IL-3Rα E51Q/S59A double mutant, full length (human, UniProt P26951 19-378); test: Western blot after SDS-PAGE of whole cell extracts
T5 chain: T3 chain with S41A, T70P

[6] = biological target: T6, human IL-3Rα S59A/P88T double mutant, full length (human, UniProt P26951 19-378); test: Western blot after SDS-PAGE of whole cell extracts
T6 chain: T3 chain with Q33E, S41A

Measured: binding result

B1: monoclonal antibody 7G3 (antibody, V domains shown)
VH: EVQLQQSGPELVKPGASVKMSCKASGYTFTDYYMKWVKQSHGKSLEWIGDIIPSNGATFYNQKFKGKATLTVDRSSSTAYMHLNSLTSEDSAVYYCTRSHLLRASWFAYWGQGTLVTVSA
VL: DFVMTQSPSSLTVTAGEKVTMSCKSSQSLLNSGNQKNYLTWYLQKPGQPPKLLIYWASTRESGVPDRFTGSGSGTDFTLTISSVQAEDLAVYYCQNDYSYPYTFGGGTKLEIKR
notes: mouse monoclonal antibody (hybridoma ATCC HB-12009)
no binding: [1] | [2] | [3] | [4] | [5] | [6]
